{"source": "patent US20050066381A1", "key": {"[1]": {"tested_on": "recombinant Ser-67-Ala inhibitor-1 isolated from E. coli"}, "[2]": {"tested_on": "recombinant wildtype inhibitor-1 isolated from E. coli"}, "[3]": {"molecular_target": "PP1c (PP1cα), protein phosphatase 1 catalytic subunit", "sequence (P62138 2-330)": "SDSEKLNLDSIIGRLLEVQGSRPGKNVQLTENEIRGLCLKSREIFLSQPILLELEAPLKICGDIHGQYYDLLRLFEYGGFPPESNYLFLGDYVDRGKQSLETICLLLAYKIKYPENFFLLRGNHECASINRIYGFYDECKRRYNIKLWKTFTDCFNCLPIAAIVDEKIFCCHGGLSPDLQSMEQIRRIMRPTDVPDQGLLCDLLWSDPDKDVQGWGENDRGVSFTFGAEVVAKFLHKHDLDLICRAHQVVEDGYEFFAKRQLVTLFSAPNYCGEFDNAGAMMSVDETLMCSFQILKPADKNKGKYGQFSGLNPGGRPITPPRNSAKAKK", "test": "PP1c pull-down from adenovirus-infected cardiomyocytes (I-1 + PKCα dn), I-1 Western blot, quantified"}, "[4]": {"molecular_target": "PP1c (PP1cα), protein phosphatase 1 catalytic subunit", "test": "PP1c pull-down from adenovirus-infected cardiomyocytes (I-1 + PKCα wt), I-1 Western blot, quantified"}}, "data": [{"substance": "protein kinase C isolated from rabbit heart muscle", "values": [{"measurement": "in vitro phosphorylation with 32P-ATP, relative to wildtype I-1", "setting": "[1]", "value": "approximately 50% less phosphorylation by PKC compared with equal amounts of wildtype protein"}, {"measurement": "in vitro phosphorylation with 32P-ATP, SDS-PAGE and quantification of radioactivity", "setting": "[2]", "value": "Wildtype I-1 protein was directly phosphorylated in vitro in a time-dependent manner at stoichiometric levels by PKC"}]}, {"substance": "Inhibitor-1 (I-1), expressed from adenovirus in neonatal rat cardiomyocytes", "values": [{"measurement": "increase of I-1/PP1c complex formation when dominant negative PKCα is expressed", "setting": "[3]", "value": "> 70", "unit": "% increase"}, {"measurement": "reduction of I-1 interaction with PP1c when wildtype PKCα is overexpressed", "setting": "[4]", "value": 50, "unit": "% reduction"}]}]}
